From patent US20070178095A1 come the findings set out here.

Experiment in all cases: ELISA, growth factor coated at 10 ug/ml, antibody at 10 ug/ml, mean of duplicate wells
Experiment [1] concerns the target Activin A (R&D Systems 338-AC) (UniProt P08476).
In experiment [2] the target is Activin B (R&D Systems 659-AB) (UniProt P09529).
The target in experiment [3] is BMP-2 (R&D Systems 355-BEC/CF) (UniProt P12643).
Experiment [4] concerns the target BMP-5 (R&D Systems 615-BM) (UniProt P22003).
The target of experiment [5] is BMP-6 (R&D Systems 507-BP) (UniProt P22004).
BMP-6 (R&D Systems 507-BP), sequence (P22004 382-513 limits assumed): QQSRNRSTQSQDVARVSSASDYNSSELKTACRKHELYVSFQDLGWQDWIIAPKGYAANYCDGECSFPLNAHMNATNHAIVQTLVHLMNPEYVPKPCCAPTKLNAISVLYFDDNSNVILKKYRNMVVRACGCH
In experiment [6] the target is BMP-7 (R&D Systems 354-BP) (UniProt P18075).
BMP-7 (R&D Systems 354-BP), sequence (P18075 293-431 limits assumed): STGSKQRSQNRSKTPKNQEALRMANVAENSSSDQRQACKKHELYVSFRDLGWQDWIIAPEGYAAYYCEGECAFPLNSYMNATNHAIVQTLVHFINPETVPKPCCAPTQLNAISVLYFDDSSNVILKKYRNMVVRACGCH
Experiment [7] deals with IGF-1 (R&D Systems 291-G1) (UniProt P05019).
IGF-1 (R&D Systems 291-G1), sequence (P05019 49-118 limits assumed): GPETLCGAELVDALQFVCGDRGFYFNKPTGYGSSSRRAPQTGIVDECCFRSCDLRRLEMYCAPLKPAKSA
Experiment [8] has as its target TGF-alpha (R&D Systems 239-A) (UniProt P01135).
Experiment [9] deals with TGF-beta1 (Peprotech, Inc. 100-21R) (UniProt P01137).
TGF-beta1 (Peprotech, Inc. 100-21R), sequence (P01137 279-390 limits assumed): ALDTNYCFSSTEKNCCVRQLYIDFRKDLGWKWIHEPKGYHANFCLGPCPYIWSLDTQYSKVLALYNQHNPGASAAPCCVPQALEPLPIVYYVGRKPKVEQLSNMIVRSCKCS
Experiment [10] concerns the target TGF-beta2 (Peprotech, Inc. 100-35) (UniProt P61812).
For experiment [11], the target named is recombinant human GDF-11 (Peprotech, Inc., Cat. # 120-11, carrier-free) (human) (UniProt O95390).
recombinant human GDF-11 (Peprotech, Inc., Cat. # 120-11, carrier-free) (human), sequence (O95390 299-407 limits assumed): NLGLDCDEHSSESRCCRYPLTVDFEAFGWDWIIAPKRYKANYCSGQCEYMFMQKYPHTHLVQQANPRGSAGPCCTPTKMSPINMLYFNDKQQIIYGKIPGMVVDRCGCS
Experiment [12] has as its target recombinant mouse myostatin (R&D systems, Cat. #788-G8/CF, carrier-free) (mouse) (UniProt O08689).

TGF-alpha (R&D Systems 239-A), sequence (P01135 40-89 limits assumed): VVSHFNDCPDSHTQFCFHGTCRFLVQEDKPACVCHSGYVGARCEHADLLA
recombinant mouse myostatin (R&D systems, Cat. #788-G8/CF, carrier-free) (mouse), sequence (O08689 268-376): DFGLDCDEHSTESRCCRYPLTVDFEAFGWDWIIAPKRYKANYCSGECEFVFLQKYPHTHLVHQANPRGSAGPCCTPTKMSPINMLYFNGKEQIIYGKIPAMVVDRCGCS
TGF-beta2 (Peprotech, Inc. 100-35), sequence (P61812 303-414 limits assumed): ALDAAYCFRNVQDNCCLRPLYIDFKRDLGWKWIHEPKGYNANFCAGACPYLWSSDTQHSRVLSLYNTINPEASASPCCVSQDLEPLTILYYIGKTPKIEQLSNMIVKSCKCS
Activin A (R&D Systems 338-AC), sequence (P08476 311-426 limits assumed): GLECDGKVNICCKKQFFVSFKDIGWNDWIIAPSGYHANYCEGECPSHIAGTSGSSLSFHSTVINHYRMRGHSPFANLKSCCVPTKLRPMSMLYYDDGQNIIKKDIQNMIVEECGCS
Activin B (R&D Systems 659-AB), sequence (P09529 293-407 limits assumed): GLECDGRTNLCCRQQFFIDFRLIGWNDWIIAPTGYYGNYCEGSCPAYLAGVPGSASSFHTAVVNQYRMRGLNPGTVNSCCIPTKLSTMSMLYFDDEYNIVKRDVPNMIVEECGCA
BMP-5 (R&D Systems 615-BM), sequence (P22003 317-454 limits assumed): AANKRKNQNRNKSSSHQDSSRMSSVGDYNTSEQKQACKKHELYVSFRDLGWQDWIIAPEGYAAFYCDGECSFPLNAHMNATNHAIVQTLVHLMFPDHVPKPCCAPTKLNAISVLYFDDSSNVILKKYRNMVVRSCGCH
BMP-2 (R&D Systems 355-BEC/CF), sequence (P12643 283-396 limits assumed): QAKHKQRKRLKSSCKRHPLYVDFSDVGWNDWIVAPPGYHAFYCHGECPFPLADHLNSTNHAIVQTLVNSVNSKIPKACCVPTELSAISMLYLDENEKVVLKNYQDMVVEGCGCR

For “polyclonal anti-myostatin antibody (R&D Systems, catalog #AF788)”, the absorbance at 490 nm in experiment [1] came to 0.049 OD 490 nm; in [2], 0.0485 OD 490 nm; in experiment [3] it was 0.0525 OD 490 nm; in [4] it was 0.038 OD 490 nm; in experiment [5], 0.0745 OD 490 nm; in experiment [6], 0.042 OD 490 nm. In addition, the absorbance at 490 nm in [7] turned out to be 0.045 OD 490 nm; in experiment [8] it was 0.0445 OD 490 nm; in experiment [9] it was 0.0425 OD 490 nm; in [10] it was 0.0525 OD 490 nm; in experiment [11], 2.62 OD 490 nm; in experiment [12], 2.94 OD 490 nm.
